Measured values from US20160083733.

How the values were obtained:
[1] = biological target: GST-PDX1 T214A (bacterially purified), P52946
[2] = biological target: GST-PDX1 T155A (bacterially purified), P52946
[3] = biological target: GST-PDX1 T126A (bacterially purified), P52946
[4] = biological target: GST-PDX1 T231A (bacterially purified), P52946
[5] = biological target: GST-PDX1 WT (bacterially purified), P52946
[6] = biological target: GST-PDX1 T152A (bacterially purified), P52946
[7] = biological target: Purified recombinant human PDX-1 (Abcam), P52945
Purified recombinant human PDX-1 (Abcam), P52945, sequence (P52945 whole entry): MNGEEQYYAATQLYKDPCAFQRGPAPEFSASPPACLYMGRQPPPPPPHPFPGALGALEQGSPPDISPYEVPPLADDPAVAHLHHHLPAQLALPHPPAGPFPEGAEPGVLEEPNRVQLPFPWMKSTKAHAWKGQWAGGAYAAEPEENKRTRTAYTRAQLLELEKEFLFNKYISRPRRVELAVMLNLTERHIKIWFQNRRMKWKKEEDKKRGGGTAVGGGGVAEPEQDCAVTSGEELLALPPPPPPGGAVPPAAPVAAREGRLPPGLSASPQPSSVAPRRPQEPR

[8] = biological target: GST-PDX1 T11A (bacterially purified), P52946
GST-PDX1 T11A (bacterially purified), P52946, sequence (P52946 whole entry T11A, looked up): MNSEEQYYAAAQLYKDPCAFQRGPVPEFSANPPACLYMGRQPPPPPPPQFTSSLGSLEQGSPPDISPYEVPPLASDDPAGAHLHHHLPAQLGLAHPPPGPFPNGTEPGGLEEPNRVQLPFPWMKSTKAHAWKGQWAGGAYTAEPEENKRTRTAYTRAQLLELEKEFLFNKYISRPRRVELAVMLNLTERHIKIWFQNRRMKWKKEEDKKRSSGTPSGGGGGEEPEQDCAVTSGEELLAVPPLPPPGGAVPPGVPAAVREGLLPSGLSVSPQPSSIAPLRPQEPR

GST-PDX1 WT (bacterially purified), P52946, sequence (P52946 whole entry): as the sequence (P52946 whole entry T11A, looked up) above, with A11T counted along it
GST-PDX1 T155A (bacterially purified), P52946, sequence (P52946 whole entry T155A, looked up): as the sequence (P52946 whole entry T11A, looked up) above, with A11T, T155A counted along it
GST-PDX1 T152A (bacterially purified), P52946, sequence (P52946 whole entry T152A, looked up): as the sequence (P52946 whole entry T11A, looked up) above, with A11T, T152A counted along it
GST-PDX1 T126A (bacterially purified), P52946, sequence (P52946 whole entry T126A, looked up): as the sequence (P52946 whole entry T11A, looked up) above, with A11T, T126A counted along it
GST-PDX1 T231A (bacterially purified), P52946, sequence (P52946 whole entry T231A, looked up): as the sequence (P52946 whole entry T11A, looked up) above, with A11T, T231A counted along it
GST-PDX1 T214A (bacterially purified), P52946, sequence (P52946 whole entry T214A, looked up): as the sequence (P52946 whole entry T11A, looked up) above, with A11T, T214A counted along it

B1: Purified human active MST1 (Upstate Biotechnology) (protein)
chain: METVQLRNPPRRQLKKLDEDSLTKQPEEVFDVLEKLGEGSYGSVYKAIHKETGQIVAIKQVPVESDLQEIIKEISIMQQCDSPHVVKYYGSYFKNTDLWIVMEYCGAGSVSDIIRLRNKTLTEDEIATILQSTLKGLEYLHFMRKIHRDIKAGNILLNTEGHAKLADFGVAGQLTDTMAKRNTVIGTPFWMAPEVIQEIGYNCVADIWSLGITAIEMAEGKPPYADIHPMRAIFMIPTNPPPTFRKPELWSDNFTDFVKQCLVKSPEQRATATQLLQHPFVRSAKGVSILRDLINEAMDVKLKRQESQQREVDQDDEENSEEDEMDSGTMVRAVGDEMGTVRVASTMTDGANTMIEHDDTLPSQLGTMVINAEDEEEEGTMKRRDETMQPAKPSFLEYFEQKEKENQINSFGKSVPGPLKNSSDWKIPQDGDYEFLKSWTVEDLQKRLLALDPMMEQEIEEIRQKYQSKRQPILDAIEAKKRRQQNF
in vitro kinase assay, pan-phospho threonine western blot [1]: With the exception of T11A, PDX1-WT and other mutants were efficiently threonine phosphorylated
in vitro kinase assay, pan-phospho threonine western blot [2]: With the exception of T11A, PDX1-WT and other mutants were efficiently threonine phosphorylated
in vitro kinase assay, pan-phospho threonine western blot [3]: With the exception of T11A, PDX1-WT and other mutants were efficiently threonine phosphorylated
in vitro kinase assay, pan-phospho threonine western blot [4]: With the exception of T11A, PDX1-WT and other mutants were efficiently threonine phosphorylated
in vitro kinase assay, pan-phospho threonine western blot [5]: With the exception of T11A, PDX1-WT and other mutants were efficiently threonine phosphorylated
in vitro kinase assay, pan-phospho threonine western blot [6]: With the exception of T11A, PDX1-WT and other mutants were efficiently threonine phosphorylated
in vitro kinase assay (32P autoradiography; western blot with phospho-specific antibody) [7]: In vitro kinase assays showed that MST1 efficiently phosphorylated PDX1
in vitro kinase assay, pan-phospho threonine western blot [8]: With the exception of T11A, PDX1-WT and other mutants were efficiently threonine phosphorylated
